Test [1] has as its target T1, rHuman Erythropoietin R/Fc Chimera, CF (R&D Systems Cat#963-ER) (human, UniProt P19235 25-250).
T1 construct: Bought recombinant protein; also called EPO R/Fc; Epo R; Fc part of the bought chimera not given
T1 sequence (looked up): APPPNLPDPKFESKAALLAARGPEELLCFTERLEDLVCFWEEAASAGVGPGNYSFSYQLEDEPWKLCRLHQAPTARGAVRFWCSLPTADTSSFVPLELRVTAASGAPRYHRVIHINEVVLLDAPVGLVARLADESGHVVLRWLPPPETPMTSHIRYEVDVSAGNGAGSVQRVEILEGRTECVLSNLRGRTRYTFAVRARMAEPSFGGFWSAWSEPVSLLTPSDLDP
As to the kind of experiment: Multispot ECL (MSD) assay, antigen spotted on plate, Fab at 1.56 µM; blank spot 4357.

Test [2] has as its target T2, Recombinant Human DLL4 (R&D Systems Cat#1506-D4/CF) (human, UniProt Q9NR61 27-524).
T2 construct: Bought recombinant protein; also called delta-like protein 4; rHuman DLL4
Described as above.

Test [3] deals with T3, rHuman ErbB2/Fc Chimera, CF (R&D Systems Cat#1129-ER) (human, UniProt P04626 23-652).
T3 construct: Bought recombinant protein; also called human epidermal growth factor 2 receptor (ErbB2); Fc part of the bought chimera not given
Described as above.

In test [4] the target is T4, rHuman EGF R/Fc Chimera, CF (R&D Systems Cat#344-ER) (human, UniProt P00533 25-645).
T4 construct: Bought recombinant protein; also called epidermal growth factor receptor (EGF R); Fc part of the bought chimera not given
The description is as above.

The target of test [5] is T5, rHuman HGF R/c-MET/Fc Chimera, CF (R&D Systems Cat#358-MT/CF) (human, UniProt P08581 25-932).
T5 construct: Bought recombinant protein; also called HGF R/Fc; hepatocyte growth factor receptor (HGF R/c-Met); Fc part of the bought chimera not given
The test is described as above.

The target of test [6] is T6, rHuman Notch-1/Fc Chimera, CF (R&D Systems Cat#3647-TK) (human, UniProt P46531 19-526).
T6 construct: Bought recombinant protein; Fc part of the bought chimera not given
The test is described as above.

Test [7] has as its target T7, rHuman CD44/Fc Chimera, CF (R&D Systems Cat#3660-CD) (human, UniProt P16070 21-220).
T7 construct: Bought recombinant protein; Fc part of the bought chimera not given
The description is as above.

Test [8] addresses T8, Recombinant Human DLL4 (R&D Systems Cat#1506-D4/CF) (human, UniProt Q9NR61 27-524).
T8 construct: Bought recombinant protein; also called rHuman DLL4; delta-like protein 4
Put plainly: MSD multispot ECL, antigen spotted, Fab 2383 nM; blank spot 344.

In test [9] the target is T9, rHuman ErbB2/Fc Chimera, CF (R&D Systems Cat#1129-ER) (human, UniProt P04626 23-652).
T9 construct: Bought reagent; also called human epidermal growth factor 2 receptor
The test is described as above.

The target of test [10] is T10, rHuman EGF R/Fc Chimera, CF (R&D Systems Cat#344-ER) (human, UniProt P00533 25-645).
T10 construct: Bought reagent; also called epidermal growth factor receptor
Described as above.

Test [11] deals with T11, rHuman HGF R/c-MET/Fc Chimera, CF (R&D Systems Cat#358-MT/CF) (human, UniProt P08581 25-932).
T11 construct: Bought reagent; also called HGF R/Fc; hepatocyte growth factor receptor
The test is described as above.

Test [12] deals with T12, rHuman Notch-1/Fc Chimera, CF (R&D Systems Cat#3647-TK) (human, UniProt P46531 19-526).
T12 construct: Bought reagent
Described as above.

The target in test [13] is T13, rHuman CD44/Fc Chimera, CF (R&D Systems Cat#3660-CD) (human, UniProt P16070 21-220).
T13 construct: Bought reagent
The description is as above.

Test [14] concerns the target T14, rHuman IGF-1 sR, (IGF-1 sR), CF (R&D Systems Cat#391-GR) (human, UniProt P08069 31-932).
T14 construct: Bought soluble receptor; also called insulin-like growth factor-1 soluble receptor
The description is as above.

Test [15] addresses T15, rHuman Erythropoietin R/Fc Chimera, CF (R&D Systems Cat#963-ER) (human, UniProt P19235 25-250).
T15 construct: Bought reagent; also called EPO R/Fc; Epo R
T15 sequence (looked up): T1 sequence (looked up)
The description is as above.

Test [16] concerns the target T16, rHuman Notch-1/Fc Chimera, CF (R&D Systems Cat#3647-TK) (human, UniProt P46531 19-526).
T16 construct: Bought Fc chimera; Fc part of the bought chimera not given
Put plainly: Multispot ECL (MSD) titration; antigen spotted on plate; Fab 930 nM; blank spot 1206.

For test [17], the target named is T17, rHuman CD44/Fc Chimera, CF (R&D Systems Cat#3660-CD) (human, UniProt P16070 21-220).
T17 construct: Bought Fc chimera; Fc part of the bought chimera not given
Described as above.

The target in test [18] is T18, rHuman P-Cadherin/Fc Chimera, CF (R&D Systems Cat#861-PC) (human, UniProt P22223 108-654).
T18 construct: Bought Fc chimera; Fc part of the bought chimera not given
Described as above.

Numbering of substitutions follows the chain as printed.

B1: Fab VH1-46_IGHD7-27*01_IGHJ2*01 & L6_IGKJ1*01 (Fab, V domains shown)
VH: QVQLVQSGAEVKKPGASVKVSCKASGYTFTSYYMHWVRQAPGQGLEWMGIINPSGGSTSYAQKFQGRVTMTRDTSTSTVYMELSSLRSEDTAVYYCARANWGYWYFDLWGRGTLVTVSS
VL: not shown
notes: Germline Fab made in E. coli; VH was cloned in Plasmid A (CH1 constant region, His6 and Flag tags) and the kappa VL in Plasmid C (kappa CL); Only the variable domains are tied to this Fab by name
Take B1: the ECL signal in test [1] is 9480; in [2], 10900; in test [3] it was 7580; in test [4], 7830; in [5], 10300; in test [6] it was 9450. For the same molecule, the ECL signal in test [7] was 7600.

B2: Fab VH1-46_IGHD6-6*01_IGHJ1*01 & L6_IGKJ1*01 (Fab, V domains shown)
VH: QVQLVQSGAEVKKPGASVKVSCKASGYTFTSYYMHWVRQAPGQGLEWMGIINPSGGSTSYAQKFQGRVTMTRDTSTSTVYMELSSLRSEDTAVYYCAREEYSSSSAEYFQHWGQGTLVTVSS
VL: not shown
notes: Only variable domains are tied to the molecule; Tested as a Fab made in E. coli: heavy chain from Plasmid A (CH1 constant region, His6 and Flag tags), kappa light chain from Plasmid C (kappa CL); also called parent Hit Fab against DLL4; VH1-46_IGHD6-6*01_IGHJ1*01 & L6_IGKJ1*01 (parental)
With B2, the ECL signal in test [8] turned out to be 11800 ECL signal; in test [9], 454 ECL signal; in test [10], 621 ECL signal; in test [11], 762 ECL signal; in test [12], 690 ECL signal; in test [13], 559 ECL signal. Also, the ECL signal in [14] was found to be 527 ECL signal; in [15], 658 ECL signal.

B3: Fab VH1-46_IGHD6-13*01_IGHJ4*01 & O1_IGKJ1*01 (Fab, V domains shown)
VH: B2 VH with E100G, S105W, A106Y, E107D, Q110D, H111Y
VL: DIVMTQTPLSLPVTPGEPASISCRSSQSLLDSDDGNTYLDWYLQKPGQSPQLLIYTLSYRASGVPDRFSGSGSGTDFTLKISRVEAEDVGVYYCMQRIEFPSWTFGQGTKVEIKR
notes: Germline library Fab expressed in E. coli; VH was cloned into Plasmid A (CH1 constant region, His6 and Flag tags); The kappa VL was cloned into Plasmid C (kappa CL)
On to B3, for which the values for the ECL signal in [16], in test [17] and in test [18] were 2210, 1920 and 2440, respectively.

These data come from patent publication US20120316071A1 (published 2012).
